Measurements: patent publication US20190309018A1
Like-named read-outs stand apart in the source and are kept apart here. Square brackets hold non-standard residues; d marks the D form. Ends that are not written are not given here. Cya = N[C@@H](CS(=O)(=O)O)C(=O)O

Columns and labels:
[1] = target: integrins (on human umbilical vein endothelial cells, HUVEC) (human); assay: cell-based or functional assay
[2] = target: integrins (on human umbilical vein endothelial cells, HUVEC) (human); assay: cell-based or functional assay; remark: listed apart in the source

Molecule	inhibition of HUVEC wound healing (scratch assay on fibronectin coated surface; peptide 1 mM) after 24 hours [1] [%]	inhibition of cell adhesion in a model of wound healing using HUVEC, 12 hours [1] [%]	inhibition of HUVEC wound healing (scratch assay on fibronectin coated surface; peptide 10 mM) after 24 hours [2] [%]	inhibition of cell adhesion in a model of wound healing using HUVEC, 12 hours [2] [%]
Cyclic RGD (RGD-based peptide; N-methylated cyclic-RGDf-N(Me)V; Cilengitide)	45	40	–	–
GRG[Cya]TP-OH [Glycinyl-Arginyl-Glycinyl-Cysteic-Threonyl-Proline-COOH (GRG Cysteic Acid TP)]	–	–	70	74
